Experimental data taken from patent US20230212319A1, “NOVEL ANTIGEN BINDING DOMAINS AND SYNTHETIC ANTIGEN RECEPTORS INCORPORATING THE SAME” (University of Southern California, priority 2020, published 2023).

B1: 22121 (protein)
chain: MALPVTALLLPLALLLHAARPDIQMTQSPSSLSASVGDRVTITCKASDHINNWLAWYQQKPGQAPKLLIYGATTLETGVPSRFSGSGSGTDYTLTISSLQPEDFATYYCQQSWNTPWTFGQGTKLEIKRLEGQPKANPTVTLFPPSSEELQANKATLVCLISDFYPGAVTVAWKADGSPVKAGVETTKPSKQSNNKYAASSYLSLTPEQWKSHRSYSCQVTHEGSTVEKTVAPTECSPIKTDVITMDPKDNCSKDANDTLLLQLTNTSAYYMYLLLLLKSVVYFAIITCCLLRRTAFCCNGEKSRAKRSGSGATNFSLLKQAGDVEENPGPTSATMDWIWRILFLVGAATGAHSGPQVQLQESGGGLAQAGGSLRLSCAASGRTFSMGWFRQAPGKEREFVAAITYSGGSPYYASSVRGRFTISRDNAKNTVYLQMNSLKPEDTAVYYCAANPTYGSDWNAENWGQGTQVTVSSGSGGGGSGGGGSGGGGSFEQVQLQQPGAELVKPGASVKMSCKASGYAFSSYWINWMKQKPGQGLEWIGQIYPGDGDTNYNGKFKGRATLTADTSSSTAYMQLSSLTSEDSAVYFCARSITTVVGCAMDYWGQGTSVTVSSTRASTKGPSVFPLAPSSKSTSGGTAALGCLVKDYFPEPVTVSWNSGALTSGVHTFPAVLQSSGLYSLSSVVTVPSSSLGTQTYICNVNHKPSNTKVDKRVEPKSCEVKTDSTDHVKPKETENTKQPSKSCHKPKAIVHTEKVNMMSLTVLGLRMLFAKTVAVNFLLTAKLFFLRAKRSGSGVKQTLNFDLLKLAGDVESNPGPSRGHMTEYKPTVRLATRDDVPRAVRTLAAAFADYPATRHTVDPDRHIERVTELQELFLTRVGLDIGKVWVADDGAAVAVWTTPESVEAGAVFAEIGPRMAELSGSRLAAQQQMEGLLAPHRPKEPAWFLATVGVSPDHQGKGLGSAVVLPGVEAAERAGVPAFLETSAPRNLPFYERLGFTVTADVEVPEGPRTWCMTRKPGA
B2: 22167 (protein)
chain: MALPVTALLLPLALLLHAARPEVQLQESGGGLVQPGGSLRLSCAASGRTFSSLFMGWVRQAPGKGLELVSAISRYSLYTYYADSVKGRFTISRDNAKNTLYLQMNSLRPEDTAVYYCASKLEYTSNDYDSWGQGTLVTVSSGTGGGGSGGGGSGGGGSEFDIQMTQSPSSLSASVGDRVTITCKASDHINNWLAWYQQKPGQAPKLLIYGATTLETGVPSRFSGSGSGTDYTLTISSLQPEDFATYYCQQSWNTPWTFGQGTKLEIKRLEIQNPDPAVYQLRDSKSSDKSVCLFTDFDSQTNVSQSKDSDVYITDKCVLDMRSMDFKSNSAVAWSNKSDFACANAFNNSIIPEDTFFPSSDVPCDVKLVEKSFETDTNLNFQNLSVIGFRILLLKVAGFNLLMTLRLWSSRAKRSGSGVKQTLNFDLLKLAGDVESNPGPTSATMDWIWRILFLVGAATGAHSGPQVQLQESGGGLAQAGGSLRLSCAASGRTFSMGWFRQAPGKEREFVAAITYSGGSPYYASSVRGRFTISRDNAKNTVYLQMNSLKPEDTAVYYCAANPTYGSDWNAENWGQGTQVTVSSGSGGGGSGGGGSGGGGSFEQVQLQQPGAELVKPGASVKMSCKASGYAFSSYWINWMKQKPGQGLEWIGQIYPGDGDTNYNGKFKGRATLTADTSSSTAYMQLSSLTSEDSAVYFCARSITTVVGCAMDYWGQGTSVTVSSTREDLKNVFPPEVAVFEPSKAEIAHTQKATLVCLATGFYPDHVELSWWVNGKEVHSGVCTDPQPLKEQPALNDSRYCLSSRLRVSATFWQNPRNHFRCQVQFYGLSENDEWTQDRAKPVTQIVSAEAWGRADCGITSASYHQGVLSATILYEILLGKATLYAVLVSALVLMAMVKRKDSRGRAKRSGSGATNFSLLKQAGDVEENPGPSRGHMTEYKPTVRLATRDDVPRAVRTLAAAFADYPATRHTVDPDRHIERVTELQELFLTRVGLDIGKVWVADDGAAVAVWTTPESVEAGAVFAEIGPRMAELSGSRLAAQQQMEGLLAPHRPKEPAWFLATVGVSPDHQGKGLGSAVVLPGVEAAERAGVPAFLETSAPRNLPFYERLGFTVTADVEVPEGPRTWCMTRKPGA
B3: 22168 (protein)
chain: MALPVTALLLPLALLLHAARPEVQLVESGGGLVQPGGSLRLSCEASGFASDDYIIGWFRQAPGKEREGVSCISSKYANTVYTDSVKGRFRLSRGTAKNTVYLQMSALKPEDTAVYYCAMDSRRVTCPEISTMHRNFDSWGQGTLVTVSSGTGGGGSGGGGSGGGGSEFDIQMTQSPSSLSASVGDRVTITCKASDHINNWLAWYQQKPGQAPKLLIYGATTLETGVPSRFSGSGSGTDYTLTISSLQPEDFATYYCQQSWNTPWTFGQGTKLEIKRLEIQNPDPAVYQLRDSKSSDKSVCLFTDFDSQTNVSQSKDSDVYITDKCVLDMRSMDFKSNSAVAWSNKSDFACANAFNNSIIPEDTFFPSSDVPCDVKLVEKSFETDTNLNFQNLSVIGFRILLLKVAGFNLLMTLRLWSSRAKRSGSGVKQTLNFDLLKLAGDVESNPGPTSATMDWIWRILFLVGAATGAHSGPQVQLQESGGGLAQAGGSLRLSCAASGRTFSMGWFRQAPGKEREFVAAITYSGGSPYYASSVRGRFTISRDNAKNTVYLQMNSLKPEDTAVYYCAANPTYGSDWNAENWGQGTQVTVSSGSGGGGSGGGGSGGGGSFEQVQLQQPGAELVKPGASVKMSCKASGYAFSSYWINWMKQKPGQGLEWIGQIYPGDGDTNYNGKFKGRATLTADTSSSTAYMQLSSLTSEDSAVYFCARSITTVVGCAMDYWGQGTSVTVSSTREDLKNVFPPEVAVFEPSKAEIAHTQKATLVCLATGFYPDHVELSWWVNGKEVHSGVCTDPQPLKEQPALNDSRYCLSSRLRVSATFWQNPRNHFRCQVQFYGLSENDEWTQDRAKPVTQIVSAEAWGRADCGITSASYHQGVLSATILYEILLGKATLYAVLVSALVLMAMVKRKDSRGRAKRSGSGATNFSLLKQAGDVEENPGPSRGHMTEYKPTVRLATRDDVPRAVRTLAAAFADYPATRHTVDPDRHIERVTELQELFLTRVGLDIGKVWVADDGAAVAVWTTPESVEAGAVFAEIGPRMAELSGSRLAAQQQMEGLLAPHRPKEPAWFLATVGVSPDHQGKGLGSAVVLPGVEAAERAGVPAFLETSAPRNLPFYERLGFTVTADVEVPEGPRTWCMTRKPGA
B4: 22215 (protein)
chain: MALPVTALLLPLALLLHAARPACPYINIYNAEPANPSEKNSPTQYAYGTGAVVRGAEFDIQMTQSPSSLSASVGDRVTITCKASDHINNWLAWYQQKPGQAPKLLIYGATTLETGVPSRFSGSGSGTDYTLTISSLQPEDFATYYCQQSWNTPWTFGQGTKLEIKRLEDLKNVFPPEVAVFEPSKAEIAHTQKATLVCLATGFYPDHVELSWWVNGKEVHSGVCTDPQPLKEQPALNDSRYCLSSRLRVSATFWQNPRNHFRCQVQFYGLSENDEWTQDRAKPVTQIVSAEAWGRADCGITSASYHQGVLSATILYEILLGKATLYAVLVSALVLMAMVKRKDSRGRAKRSGSGATNFSLLKQAGDVEENPGPTSATMDWIWRILFLVGAATGAHSGPQVQLQESGGGLAQAGGSLRLSCAASGRTFSMGWFRQAPGKEREFVAAITYSGGSPYYASSVRGRFTISRDNAKNTVYLQMNSLKPEDTAVYYCAANPTYGSDWNAENWGQGTQVTVSSGSGGGGSGGGGSGGGGSFEQVQLQQPGAELVKPGASVKMSCKASGYAFSSYWINWMKQKPGQGLEWIGQIYPGDGDTNYNGKFKGRATLTADTSSSTAYMQLSSLTSEDSAVYFCARSITTVVGCAMDYWGQGTSVTVSSTRIQNPDPAVYQLRDSKSSDKSVCLFTDFDSQTNVSQSKDSDVYITDKCVLDMRSMDFKSNSAVAWSNKSDFACANAFNNSIIPEDTFFPSSDVPCDVKLVEKSFETDTNLNFQNLSVIGFRILLLKVAGFNLLMTLRLWSSRAKRSGSGVKQTLNFDLLKLAGDVESNPGPSRGHMTEYKPTVRLATRDDVPRAVRTLAAAFADYPATRHTVDPDRHIERVTELQELFLTRVGLDIGKVWVADDGAAVAVWTTPESVEAGAVFAEIGPRMAELSGSRLAAQQQMEGLLAPHRPKEPAWFLATVGVSPDHQGKGLGSAVVLPGVEAAERAGVPAFLETSAPRNLPFYERLGFTVTADVEVPEGPRTWCMTRKPGA

Each molecule was assayed on RAJI cells (assay: JNG assay, co-culture with RAJI cells). Details: JNG cells expressing construct, co-culture with Raji.
Format: cell-based
In short: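 Jurkat-NFAT-GFP (JNG) cells stably expressing SAR constructs via lentiviral transduction and puromycin/blasticidin selection were cocultured with target cells at E:T ~1:2 for ~4–18 h. NFAT-driven GFP was measured by FACS versus parental JNG cells; scores +/- to 5+ denote ~5–50% GFP-positive cells.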

**Q.** For B1, which “NFAT-GFP ASSAY: Raji” value is on record?
**A.** Its value is 5+ (refer to approximately 5%, 10%, 20%, 30%, 40% and 50% GFP positive cells).

**Q.** For B2, which “NFAT-GFP ASSAY: Raji” value is on record?
**A.** Its value is “+ (refer to approximately 5%, 10%, 20%, 30%, 40% and 50% GFP positive cells)”.

**Q.** How did the “NFAT-GFP ASSAY: Raji” value turn out when B3 was run?
**A.** Its value is 3+ (refer to approximately 5%, 10%, 20%, 30%, 40% and 50% GFP positive cells).

**Q.** For B4, which “NFAT-GFP ASSAY: Raji” value is on record?
**A.** The value was “Raji (3+), Raji-CD19-KO (3+) (refer to approximately 5%, 10%, 20%, 30%, 40% and 50% GFP positive cells)”.

Each molecule was assayed on RAJI-CD19-KO cells (assay: JNG assay, co-culture with RAJI-CD19-KO cells). Details: co-culture with Raji-CD19-KO.
Format: cell-based
Method: Cellular supernatant is collected and assayed for the induction of cytokines (e.g., IL2).
JNG (Jurkat cells expressing EGFP under an NFAT promoter) were infected with lentiviral vectors encoding different single chain and multi-chain SARs by spinfection in the presence of 8 µg/ml of Polybrene® (Sigma, Catalog no. H9268). The Jurkat-NFAT-GFP cells are engineered in such a way that the IL-2 promoter, which carries NFAT binding sites, is cloned upstream of the GFP gene. These cells have been used to study signaling via TCR and CAR. The different SARs were stably expressed in Jurkat NFAT-GFP cells by lentiviral mediated gene transfer, followed by selection with puromycin or blasticidin. No drug selection was used in case the construct lacked an antibiotic resistance gene. The SAR-expressing Jurkat-NFAT-GFP cells were cocultured with the target cells at E:T ratio of approximately 1:2 for approximately 4 hours to 18 hours. When the interaction between SIRs and their target antigen results in activation of the NFAT pathway, GFP expression is induced. […] GFP expression was monitored by FACS analysis. The Jurkat-NFAT-GFP (parental) cells were used as control. The structure of different constructs can be determined based on their names. […] The sequence of the other constructs in the table can be similarly determined from their names and by referring to the different Tables of this disclosure that provide the names and SEQ ID NO of the different modules. Alternatively, the composition and modular architecture of the different SAR constructs can be determined from their sequences by bioinformatics tools, including using nucleic acid and amino acids homology searches. A SAR is considered positive in the assay in case the SAR expressing Jurkat-NFAT-GFP cells show greater % GFP positive cells when cultured with the target cell line as compared to parental Jurkat-NFAT-GFP cells. […] In general, the number +/-, +, 2+, 3+, 4+, 5+ refer to approximately 5%, 10%, 20%, 30%, 40% and 50% GFP positive cells. The % of GFP induction in the above assay is dependent not only the relative strength of the SAR but also, among other factors, on the relative level of expression of the SAR in the JNG cells and the relative level of expression of the target antigen in the target cell line. To control for the difference in gene transduction efficiency of the different SAR constructs, the experiment was conducted with JNG cells transduced with SAR constructs co-expressing a drug resistance gene (e.g., puromycin or PAC) followed by drug selection to generate a stable population of SAR-expressing cells. It is to be noted that the drug resistance gene (e.g., PAC) in the SAR constructs is optional and in vivo studies were conducted with SAR constructs lacking the PAC gene.

**Q.** Which “NFAT-GFP ASSAY: Raji-CD19-KO” value does the source give for B1 here?
**A.** Its value is 4+ (refer to approximately 5%, 10%, 20%, 30%, 40% and 50% GFP positive cells).

**Q.** B2 was tested. Which “NFAT-GFP ASSAY: Raji-CD19-KO” value did it give?
**A.** The value was “+ (refer to approximately 5%, 10%, 20%, 30%, 40% and 50% GFP positive cells)”.

**Q.** How did the “NFAT-GFP ASSAY: Raji-CD19-KO” value turn out when B3 was run?
**A.** The value was 2+ (refer to approximately 5%, 10%, 20%, 30%, 40% and 50% GFP positive cells).

**Q.** Which “NFAT-GFP ASSAY: Raji-CD19-KO” value does the source give for B4 here?
**A.** The value was “Raji (3+), Raji-CD19-KO (3+) (refer to approximately 5%, 10%, 20%, 30%, 40% and 50% GFP positive cells)”.
